The subject of data set [1] is Nc1nc(/C(=N/O)C(=O)N[C@@H]2C(=O)N3C(C(=O)O)=C(/C=C4\CCN([C@@H]5CCNC5)C4=O)CS[C@H]23)ns1. Put plainly: (§1) Ratio of Kcat to Km of Morganella morganii AmpC assessed as drug hydrolysis by spectrophotometry.
Data set [2] concerns CC(C)(O/N=C(\C(=O)N[C@@H]1C(=O)N2C(C(=O)[O-])=C(C[n+]3ccccc3)CS[C@H]12)c1csc(N)n1)C(=O)O. The data set is described as §1.
Data set [3] deals with O=C(Cc1cccs1)N[C@@H]1C(=O)N2C(C(=O)[O-])=C(C[n+]3ccccc3)CS[C@H]12. Described as §1.
Data set [4] concerns O=C(Cc1cccs1)N[C@@H]1C(=O)N2C(C(=O)O)=C(/C=C/c3ccc([N+](=O)[O-])cc3[N+](=O)[O-])CS[C@H]12. The description is as §1.
Data set [5] concerns CC1(C)S[C@@H]2[C@H](NC(=O)Cc3ccccc3)C(=O)N2[C@H]1C(=O)O. Described as §1.
For data set [6], the system named is CO/N=C(\C(=O)N[C@@H]1C(=O)N2C(C(=O)[O-])=C(C[N+]3(C)CCCC3)CS[C@H]12)c1csc(N)n1. The data set is described as §1.
In data set [7] the test system is Nc1nc(/C(=N/O)C(=O)N[C@@H]2C(=O)N3C(C(=O)O)=C(/C=C4\CCN([C@@H]5CCNC5)C4=O)CS[C@H]23)ns1. The data set can be described thus: (§2) Activity of Morganella morganii AmpC assessed as drug hydrolysis by spectrophotometry.
In data set [8] the test system is CC(C)(O/N=C(\C(=O)N[C@@H]1C(=O)N2C(C(=O)[O-])=C(C[n+]3ccccc3)CS[C@H]12)c1csc(N)n1)C(=O)O. The data set is described as §2.
The test system of data set [9] is O=C(Cc1cccs1)N[C@@H]1C(=O)N2C(C(=O)[O-])=C(C[n+]3ccccc3)CS[C@H]12. The data set is described as §2.
In data set [10] the test system is O=C(Cc1cccs1)N[C@@H]1C(=O)N2C(C(=O)O)=C(/C=C/c3ccc([N+](=O)[O-])cc3[N+](=O)[O-])CS[C@H]12. The description is as §2.
Data set [11] relates to CC1(C)S[C@@H]2[C@H](NC(=O)Cc3ccccc3)C(=O)N2[C@H]1C(=O)O. Described as §2.
The test system of data set [12] is CO/N=C(\C(=O)N[C@@H]1C(=O)N2C(C(=O)[O-])=C(C[N+]3(C)CCCC3)CS[C@H]12)c1csc(N)n1. The data set is described as §2.

The values that follow come from ChEMBL document CHEMBL1143427, “Interactions of ceftobiprole with beta-lactamases from molecular classes A to D” (Antimicrob Agents Chemother, 2007).

Usually kcat/Km stands for the turnover number divided by the Michaelis constant. As a reminder, the Km is the substrate concentration at which the rate is half of its maximum. Usually kcat stands for the number of substrate molecules converted per active site and unit of time at saturation.

On to “Beta-lactamase (Morganella morganii) (from UniProt P94958)”, for which the kcat/Km in data set [1] is under 2000 M⁻¹ s⁻¹; in data set [2] it was under 71000 M⁻¹ s⁻¹; in data set [3] it was 2.8e+06 M⁻¹ s⁻¹; in data set [4], 3.9e+07 M⁻¹ s⁻¹; in [5], 2.4e+07 M⁻¹ s⁻¹; in data set [6], under 510 M⁻¹ s⁻¹. The Km in data set [7] turned out to be 23 µM; in data set [8], 14 µM; in data set [9] it was 260 µM; in [10], 31 µM; in data set [11], 7.9 µM; in data set [12], 690 µM. Besides, the catalytic constant (kcat) is under 0.047 s⁻¹ in data set [7]; under 1 s⁻¹ in [8]; 740 s⁻¹ in data set [9]; 1200 s⁻¹ in data set [10]; 190 s⁻¹ in data set [11]; under 0.35 s⁻¹ in data set [12].
